The text below walks through data of article PMC12684077.

The target of this test is RSV prefusion F (PR-DM) (respiratory syncytial virus A) (UniProt P03420). The test can be described thus: cryo-EM structure.

Broadly, the stoichiometry N is the number of molecules, sites or subunits per partner or assembly. The substance “RSV prefusion F (PR-DM) (from UniProt P03420) (complex)” returned a stoichiometry N of 3.
